Measurements: patent publication US11872270B2, “A*03 restricted peptides for use in immunotherapy against cancers and related methods” (Immatics Biotechnologies GmbH, priority 2018, dated 2024)

Biological target: HLA-A*03:01 (Homo sapiens, UniProt P04439)
Assay: MHC binding assay (UV-ligand exchange, β2m ELISA)
Conditions: binding to HLA-A*03:01, UV-ligand exchange, β2m ELISA
Description: Candidate peptides for T cell based therapies according to the present invention were further tested for their MHC binding capacity (affinity). The individual peptide-MHC complexes were produced by UV-ligand exchange, where a UV-sensitive peptide is cleaved upon UV-irradiation and exchanged with the peptide of interest as analyzed. Only peptide candidates that can effectively bind and stabilize the peptide-receptive MHC molecules prevent dissociation of the MHC complexes. To determine the yield of the exchange reaction, an ELISA was performed based on the detection of the light chain (β2m) of stabilized MHC complexes. The assay was performed as generally described in Rodenko et al. (Rodenko et al., 2006) 96 well MAXISorp plates (NUNC) were coated over night with 2 ug/ml streptavidin in PBS at room temperature, washed 4× and blocked for 1 h at 37° C. in 2% BSA containing blocking buffer. Refolded HLA-A*02:01/MLA-001 monomers served as standards, covering the range of 15-500 ng/ml. Peptide-MHC monomers of the UV-exchange reaction were diluted 100-fold in blocking buffer. Samples were incubated for 1 h at 37° C., washed four times, incubated with 2 ug/ml HRP conjugated anti-β2m for 1 h at 37° C., washed again and detected with TMB solution that is stopped with […]. Absorption was measured at 450 nm. Candidate peptides that show a high exchange yield (preferably higher than 50%, most preferred higher than 75%) are generally preferred for a generation and production of antibodies or fragments thereof, and/or T cell receptors or fragments thereof, as they show sufficient avidity to the MHC molecules and prevent dissociation of the MHC complexes.

Q: With “70 (VTAVASLLK; listed as Homo sapiens) [compound 70]” as the substance, how does the “Peptide exchange (MHC class I binding score, peptide exchange yield)” value (“Peptide exchange” for short) read?
A: ++++ (>75% = ++++)

Q: Which “Peptide exchange” value does the source give for “72 (KLYPQCLQK; listed as Homo sapiens) [compound 72]” here?
A: ++++ (>75% = ++++)

Q: For “73 (RCFSGPYLNK; listed as Homo sapiens) [compound 73]”, which “Peptide exchange” value is on record?
A: ++++ (>75% = ++++)

Q: For “75 (IIFVPEMNK; listed as Homo sapiens) [compound 75]”, which “Peptide exchange” value is on record?
A: ++++ (>75% = ++++)

Q: “76 (IINESLLFY; listed as Homo sapiens) [compound 76]” was tested. Which “Peptide exchange” value did it give?
A: +++ (>50 = +++)

Q: For “78 (KTGTFVLYKS; listed as Homo sapiens) [compound 78]”, which “Peptide exchange” value is on record?
A: +++ (>50 = +++)

Q: Which “Peptide exchange” value does the source give for “79 (AVAAVLLSR; listed as Homo sapiens) [compound 79]” here?
A: +++ (>50 = +++)

Q: How did the “Peptide exchange” value turn out when “80 (ALCGTQLFY; listed as Homo sapiens) [compound 80]” was run?
A: ++++ (>75% = ++++)

Q: With “82 (CLANYTVNK; listed as Homo sapiens) [compound 82]” as the substance, how does the “Peptide exchange” value read?
A: ++++ (>75% = ++++)

Q: For “83 (KLADSVMAGK; listed as Homo sapiens) [compound 83]”, which “Peptide exchange” value is on record?
A: ++++ (>75% = ++++)

Q: “84 (QLYSPPSPSYR; listed as Homo sapiens) [compound 84]” was tested. Which “Peptide exchange” value did it give?
A: ++++ (>75% = ++++)

Q: For “85 (IMPTFDLTK; listed as Homo sapiens) [compound 85]”, which “Peptide exchange” value is on record?
A: + (>10% = +)

Q: “86 (RVSGSGGGGAGK; listed as Homo sapiens) [compound 86]” was tested. Which “Peptide exchange” value did it give?
A: +++ (>50 = +++)

Q: Which “Peptide exchange” value does the source give for “87 (RLASVGLDAK; listed as Homo sapiens) [compound 87]” here?
A: ++++ (>75% = ++++)

Q: “88 (GTHVWVGLYK; listed as Homo sapiens) [compound 88]” was tested. Which “Peptide exchange” value did it give?
A: ++++ (>75% = ++++)

Q: How did the “Peptide exchange” value turn out when “89 (VIYVICRHK; listed as Homo sapiens) [compound 89]” was run?
A: +++ (>50 = +++)

Q: With “90 (RTALLWGLKK; listed as Homo sapiens) [compound 90]” as the substance, how does the “Peptide exchange” value read?
A: ++++ (>75% = ++++)

Q: Which “Peptide exchange” value does the source give for “91 (IMKRQVKCITK; listed as Homo sapiens) [compound 91]” here?
A: + (>10% = +)

Q: “92 (KRIPFRPLAK; listed as Homo sapiens) [compound 92]” was tested. Which “Peptide exchange” value did it give?
A: ++ (>20% = ++)

Q: For “93 (SVEGLSRRLK; listed as Homo sapiens) [compound 93]”, which “Peptide exchange” value is on record?
A: +++ (>50 = +++)

Q: How did the “Peptide exchange” value turn out when “94 (GMTLLCEALK; listed as Homo sapiens) [compound 94]” was run?
A: ++ (>20% = ++)

Q: How did the “Peptide exchange” value turn out when “95 (FLGLAFHPK; listed as Homo sapiens) [compound 95]” was run?
A: ++ (>20% = ++)

Q: How did the “Peptide exchange” value turn out when “96 (RAVSVNPGK; listed as Homo sapiens) [compound 96]” was run?
A: + (>10% = +)

Q: With “97 (RVRALGSQY; listed as Homo sapiens) [compound 97]” as the substance, how does the “Peptide exchange” value read?
A: ++++ (>75% = ++++)

Q: “98 (VSVAGSILAK; listed as Homo sapiens) [compound 98]” was tested. Which “Peptide exchange” value did it give?
A: ++ (>20% = ++)

Q: “99 (RTYTCQVTY; listed as Homo sapiens) [compound 99]” was tested. Which “Peptide exchange” value did it give?
A: ++++ (>75% = ++++)

Q: “100 (TTNARILAR; listed as Homo sapiens) [compound 100]” was tested. Which “Peptide exchange” value did it give?
A: +++ (>50 = +++)

Q: With “101 (HMDEFKRTQK; listed as Homo sapiens) [compound 101]” as the substance, how does the “Peptide exchange” value read?
A: +++ (>50 = +++)

Q: “102 (RLLQHTPSAR; listed as Homo sapiens) [compound 102]” was tested. Which “Peptide exchange” value did it give?
A: ++++ (>75% = ++++)

Q: “103 (SIYKKAVYR; listed as Homo sapiens) [compound 103]” was tested. Which “Peptide exchange” value did it give?
A: ++++ (>75% = ++++)

Q: For “104 (AVVQGLVEK; listed as Homo sapiens) [compound 104]”, which “Peptide exchange” value is on record?
A: ++ (>20% = ++)

Q: With “105 (QVLDLQSVK; listed as Homo sapiens) [compound 105]” as the substance, how does the “Peptide exchange” value read?
A: ++ (>20% = ++)

Q: With “106 (LLRSGLTLR; listed as Homo sapiens) [compound 106]” as the substance, how does the “Peptide exchange” value read?
A: ++ (>20% = ++)

Q: How did the “Peptide exchange” value turn out when “107 (ILNLNKMVK; listed as Homo sapiens) [compound 107]” was run?
A: +++ (>50 = +++)

Q: “109 (KLQNLPTLLY; listed as Homo sapiens) [compound 109]” was tested. Which “Peptide exchange” value did it give?
A: +++ (>50 = +++)

Q: For “110 (IIFIPATILLK; listed as Homo sapiens) [compound 110]”, which “Peptide exchange” value is on record?
A: ++++ (>75% = ++++)

Q: For “111 (ATSPPASVR; listed as Homo sapiens) [compound 111]”, which “Peptide exchange” value is on record?
A: ++++ (>75% = ++++)

Q: Which “Peptide exchange” value does the source give for “112 (ASLAAAVLAK; listed as Homo sapiens) [compound 112]” here?
A: +++ (>50 = +++)

Q: How did the “Peptide exchange” value turn out when “113 (VSIRNTLLY; listed as Homo sapiens) [compound 113]” was run?
A: + (>10% = +)

Q: For “114 (SLLTVSGAWAK; listed as Homo sapiens) [compound 114]”, which “Peptide exchange” value is on record?
A: ++++ (>75% = ++++)

Q: “115 (AILHPFRAK; listed as Homo sapiens) [compound 115]” was tested. Which “Peptide exchange” value did it give?
A: +++ (>50 = +++)

Q: How did the “Peptide exchange” value turn out when “117 (TVFVELWLK; listed as Homo sapiens) [compound 117]” was run?
A: ++ (>20% = ++)

Q: “118 (SLRGSFPILY; listed as Homo sapiens) [compound 118]” was tested. Which “Peptide exchange” value did it give?
A: + (>10% = +)

Q: For “119 (RMGFRTLSK; listed as Homo sapiens) [compound 119]”, which “Peptide exchange” value is on record?
A: ++++ (>75% = ++++)

Q: With “120 (TRMQKAGFLYY; listed as Homo sapiens) [compound 120]” as the substance, how does the “Peptide exchange” value read?
A: ++ (>20% = ++)

Q: “122 (LIGPLLICK; listed as Homo sapiens) [compound 122]” was tested. Which “Peptide exchange” value did it give?
A: ++++ (>75% = ++++)

Q: For “124 (VVYDTMIEK; listed as Homo sapiens) [compound 124]”, which “Peptide exchange” value is on record?
A: +++ (>50 = +++)

Q: With “125 (VVYDTMIEKF; listed as Homo sapiens) [compound 125]” as the substance, how does the “Peptide exchange” value read?
A: ++++ (>75% = ++++)

Q: How did the “Peptide exchange” value turn out when “127 (GLAAGALLLY; listed as Homo sapiens) [compound 127]” was run?
A: ++ (>20% = ++)

Q: How did the “Peptide exchange” value turn out when “128 (KIKKPLSYR; listed as Homo sapiens) [compound 128]” was run?
A: ++++ (>75% = ++++)

Q: “129 (ALARVSSVKL; listed as Homo sapiens) [compound 129]” was tested. Which “Peptide exchange” value did it give?
A: +++ (>50 = +++)

Q: “131 (RVDSKQRYY; listed as Homo sapiens) [compound 131]” was tested. Which “Peptide exchange” value did it give?
A: ++++ (>75% = ++++)

Q: For “132 (ASSFRPLLSK; listed as Homo sapiens) [compound 132]”, which “Peptide exchange” value is on record?
A: +++ (>50 = +++)

Q: “134 (SLLKPSGDYFK; listed as Homo sapiens) [compound 134]” was tested. Which “Peptide exchange” value did it give?
A: +++ (>50 = +++)

Q: Which “Peptide exchange” value does the source give for “136 (ALSRMSQQY; listed as Homo sapiens) [compound 136]” here?
A: ++++ (>75% = ++++)

Q: How did the “Peptide exchange” value turn out when “137 (TVYVAMCHKF; listed as Homo sapiens) [compound 137]” was run?
A: ++++ (>75% = ++++)

Q: Which “Peptide exchange” value does the source give for “138 (VSLSKMLKK; listed as Homo sapiens) [compound 138]” here?
A: +++ (>50 = +++)

Q: For “141 (RLRDYISSLK; listed as Homo sapiens) [compound 141]”, which “Peptide exchange” value is on record?
A: ++++ (>75% = ++++)
